Data as given in publication doi:10.1101/2025.03.21.644421 (bioRxiv, 2025).

Tests used:
[1] = target: T1, LetA (N-terminal 6xHis2xQH-TEV tagged LetA) (E. coli, UniProt P0AD03 1-427); assay: cryo-EM structure
T1 sequence (looked up): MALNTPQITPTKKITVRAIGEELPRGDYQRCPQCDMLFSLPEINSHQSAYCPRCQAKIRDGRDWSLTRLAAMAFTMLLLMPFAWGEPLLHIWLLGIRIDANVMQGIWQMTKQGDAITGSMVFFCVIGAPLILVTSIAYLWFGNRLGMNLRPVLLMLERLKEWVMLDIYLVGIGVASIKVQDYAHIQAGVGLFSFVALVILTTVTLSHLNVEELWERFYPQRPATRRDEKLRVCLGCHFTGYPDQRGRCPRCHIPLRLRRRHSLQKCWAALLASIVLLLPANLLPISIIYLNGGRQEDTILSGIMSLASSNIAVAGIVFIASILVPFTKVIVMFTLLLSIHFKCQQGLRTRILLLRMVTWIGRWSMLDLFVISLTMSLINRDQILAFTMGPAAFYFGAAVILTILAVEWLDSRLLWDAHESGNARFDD

cryo-EM structure = target: the molecule itself; assay: cryo-EM structure

stoichiometry N [1]: 6 LetB per LetA
B1: LetB (Lipophilic Envelope-spanning Tunnel B), untagged (natural protein, E. coli, UniProt P76272 1-877, looked up)
chain: MSQETPASTTEAQIKNKRRISPFWLLPFIALMIASWLIWDSYQDRGNTVTIDFMSADGIVPGRTPVRYQGVEVGTVQDISLSDDLRKIEVKVSIKSDMKDALREETQFWLVTPKASLAGVSGLDALVGGNYIGMMPGKGKEQDHFVALDTQPKYRLDNGDLMIHLQAPDLGSLNSGSLVYFRKIPVGKVYDYAINPNKQGVVIDVLIERRFTDLVKKGSRFWNVSGVDANVSISGAKVKLESLAALVNGAIAFDSPEESKPAEAEDTFGLYEDLAHSQRGVIIKLELPSGAGLTADSTPLMYQGLEVGQLTKLDLNPGGKVTGEMTVDPSVVTLLRENTRIELRNPKLSLSDANLSALLTGKTFELVPGDGEPRKEFVVVPGEKALLHEPDVLTLTLTAPESYGIDAGQPLILHGVQVGQVIDRKLTSKGVTFTVAIEPQHRELVKGDSKFVVNSRVDVKVGLDGVEFLGASASEWINGGIRILPGDKGEMKASYPLYANLEKALENSLSDLPTTTVSLSAETLPDVQAGSVVLYRKFEVGEVITVRPRANAFDIDLHIKPEYRNLLTSNSVFWAEGGAKVQLNGSGLTVQASPLSRALKGAISFDNLSGASASQRKGDKRILYASETAARAVGGQITLHAFDAGKLAVGMPIRYLGIDIGQIQTLDLITARNEVQAKAVLYPEYVQTFARGGTRFSVVTPQISAAGVEHLDTILQPYINVEPGRGNPRRDFELQEATITDSRYLDGLSIIVEAPEAGSLGIGTPVLFRGLEVGTVTGMTLGTLSDRVMIAMRISKRYQHLVRNNSVFWLASGYSLDFGLTGGVVKTGTFNQFIRGGIAFATPPGTPLAPKAQEGKHFLLQESEPKEWREWGTALPK
stoichiometry N (cryo-EM structure): 6
